Data reported in PMC314469, “Protein Interaction Networks by Proteome Peptide Scanning” (PLoS Biology, 2004).

T1: Boi1 SH3 (BOI1_YEAST), P38041
T1 chain: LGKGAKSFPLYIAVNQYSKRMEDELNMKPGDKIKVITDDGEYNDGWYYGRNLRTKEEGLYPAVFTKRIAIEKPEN

T2: Boi2 SH3 (BOI2_YEAST), P39969
T2 chain: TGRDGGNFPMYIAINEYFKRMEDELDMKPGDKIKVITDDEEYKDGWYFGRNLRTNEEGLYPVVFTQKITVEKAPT

T3: Myo5 SH3 (MYO5_YEAST), Q04439
T3 chain: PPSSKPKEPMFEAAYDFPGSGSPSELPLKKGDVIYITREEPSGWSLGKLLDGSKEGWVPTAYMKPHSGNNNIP

T4: Rvs167 SH3 (RV167_YEAST), P39743
T4 chain: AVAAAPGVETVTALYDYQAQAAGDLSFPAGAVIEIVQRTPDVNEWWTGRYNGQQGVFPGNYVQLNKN

T5: Yfr024 SH3 (LSB3_YEAST), P43603
T5 chain: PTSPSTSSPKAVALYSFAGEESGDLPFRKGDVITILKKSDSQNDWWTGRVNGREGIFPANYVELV

T6: Yhr016c SH3 (YSC84_YEAST), P32793
T6 chain: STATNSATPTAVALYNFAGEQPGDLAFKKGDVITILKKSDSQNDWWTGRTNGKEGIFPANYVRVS


Key:
Assay in all cases: SPOT array
[1] = target: T1, Boi1 SH3 (BOI1_YEAST), P38041
[2] = target: T2, Boi2 SH3 (BOI2_YEAST), P39969
[3] = target: T3, Myo5 SH3 (MYO5_YEAST), Q04439
[4] = target: T4, Rvs167 SH3 (RV167_YEAST), P39743
[5] = target: Sho1 SH3 (SHO1_YEAST), P40073
[6] = target: T5, Yfr024 SH3 (LSB3_YEAST), P43603
[7] = target: T6, Yhr016c SH3 (YSC84_YEAST), P32793

Chain of Sho1 SH3 (SHO1_YEAST), P40073 (P40073 295-366): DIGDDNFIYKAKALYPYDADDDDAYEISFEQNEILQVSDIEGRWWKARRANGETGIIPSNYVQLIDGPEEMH

Binder	normalised SPOT signal, Boehringer light units (BLU); mean over the file's lines of this peptide [1]	normalised SPOT signal, Boehringer light units (BLU); mean over the file's lines of this peptide [2]	normalised SPOT signal, Boehringer light units (BLU); mean over the file's lines of this peptide [3]	normalised SPOT signal, Boehringer light units (BLU); mean over the file's lines of this peptide [4]	normalised SPOT signal, Boehringer light units (BLU); mean over the file's lines of this peptide [5]	normalised SPOT signal, Boehringer light units (BLU); mean over the file's lines of this peptide [6]	normalised SPOT signal, Boehringer light units (BLU); mean over the file's lines of this peptide [7]
EFTTREGPHQPIGN [YDR123C 192-205]	268	0	79.8	29.4	43.5	9.9	34.5
EIPSKDHPYDPEKD [YGR020C 93-106]	51.8	7.3	51.8	0	31.1	0	6
EFQSKSSPVPPASE [YDR008C 96-109]	1430	26.5	78.8	83.5	34.9	7.3	49.9
EIAKRLQPGSPVLG [YHR047C 776-789]	26.9	8.9	172	116	22	126	58.7
EKELKEGPSSPASI [YJL076W 376-389]	46.3	13.1	208	41.1	61.7	0	28.2
EFIVKTIPVPPRDF [YER025W 296-309]	15	13.8	115	30.4	57.2	202	44.4
EFDLKNIPMMPAGE [YDL229W 462-475]	18.6	9.1	106	74.1	37.1	112	32.3
EGRSRLFPHSPLGR [YGL122C 259-272]	14900	165	141	393	41.4	2220	90.9
EFLIKEDPDLPPQG [YCL024W 744-757]	78	69.1	175	134	65.4	8.1	51.8

Other lines, results leading:

normalised SPOT signal, Boehringer light units (BLU); mean over the file's lines of this peptide [1]	normalised SPOT signal, Boehringer light units (BLU); mean over the file's lines of this peptide [2]	normalised SPOT signal, Boehringer light units (BLU); mean over the file's lines of this peptide [3]	normalised SPOT signal, Boehringer light units (BLU); mean over the file's lines of this peptide [4]	normalised SPOT signal, Boehringer light units (BLU); mean over the file's lines of this peptide [5]	normalised SPOT signal, Boehringer light units (BLU); mean over the file's lines of this peptide [6]	normalised SPOT signal, Boehringer light units (BLU); mean over the file's lines of this peptide [7]	Binder
64.2	20.2	180	72.2	44.6	31.6	39.7	EKESRHYPIKPPSP [YMR147W 121-134]
22.6	17.9	139	19.4	53.3	-0	8.8	EKEAKSEPQQPEDN [YML010W 68-81]
1090	42.9	368	3000	71.6	8340	7160	EFPGKKSPRLPHRN [YPR097W 343-356]
57.3	1.6	180	53.1	70.4	0	0	EGTTKVDPIIPVPE [YJR122W 96-109]
620	37.3	413	126	91	227	13.2	EFLRKHSPKAPATG [YMR021C 127-140]
5.1	20.6	108	67.9	20.2	8.7	-0	EIKDRDQPAVPPSP [YOL047C 317-330]
744	29.7	364	112	54.5	824	55.1	EHLQKERPKPPNKG [YOR233W 329-342]
